The target in the assay is Spike protein of patient-derived SARS-CoV-2 (D614G) (SARS-CoV-2) (UniProt P0DTC2). Put plainly: cell-based or functional assay.

As for VHH-72 ColXVIII trimer, the neutralization by the trimer against the monomer came to 10000 fold.
As for VHH-72 monomer, the partial neutralization is 170 nM.

Source of the values: patent US20230287087A1.
